Biological target: recombinant human DLL4 (hDLL4) (human, UniProt Q9NR61 27-524)
Assay: Biacore

Sequence of recombinant human DLL4 (hDLL4) (Q9NR61 27-524): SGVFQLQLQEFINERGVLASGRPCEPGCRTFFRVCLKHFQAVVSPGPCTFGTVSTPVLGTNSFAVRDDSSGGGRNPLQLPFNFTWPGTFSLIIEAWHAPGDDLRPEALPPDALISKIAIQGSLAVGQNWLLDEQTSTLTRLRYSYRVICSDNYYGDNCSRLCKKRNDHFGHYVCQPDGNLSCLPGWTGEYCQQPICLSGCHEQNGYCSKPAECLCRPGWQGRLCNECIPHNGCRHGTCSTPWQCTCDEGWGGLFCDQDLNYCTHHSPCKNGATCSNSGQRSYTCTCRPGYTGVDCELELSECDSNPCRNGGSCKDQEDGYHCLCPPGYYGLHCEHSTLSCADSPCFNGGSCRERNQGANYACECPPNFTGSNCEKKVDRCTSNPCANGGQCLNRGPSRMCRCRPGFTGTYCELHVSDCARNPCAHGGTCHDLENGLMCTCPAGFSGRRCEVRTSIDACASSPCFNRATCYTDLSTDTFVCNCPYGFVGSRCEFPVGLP

B1: Notch-1 Fc (rhNotch1-Fc) (Fc fusion)
chain: ARGPRCSQPGETCLNGGKCEAANGTEACVCGGAFVGPRCQDPNPCLSTPCKNAGTCHVVDRRGVADYACSCALGFSGPLCLTPLDNACLTNPCRNGGTCDLLTLTEYKCRCPPGWSGKSCQQADPCASNPCANGGQCLPFEASYICHCPPSFHGPTCRQDVNECGQKPGLCRHGGTCHNEVGSYRCVCRATHTGPNCERPYVPCSPSPCQNGGTCRPTGDVTHECACLPGFTGQNCEENIDDCPGNNCKNGGACVDGVNTYNCRCPPEWTGQYCTEDVDECQLMPNACQNGGTCHNTHGGYNCVCVNGWTGEDCSENIDDCASAACFHGATCHDRVASFYCECPHGRTGLLCHLNDACISNPCNEGSNCDTNPVNGKAICTCPSGYTGPACSQDVDECSLGANPCEHAGKCINTLGSFECQCLQGYTGPRCEIDVNECVSNPCQNDATCLDQIGEFQCICMPGYEGVHCEVNTDECASSPCLHNGRCLDKINEFQCECPTGFTGHLCQ
**Q.** Which Kd does the source give for B1 here?
**A.** The Kd was 19.9 nM.

— US20150315277A1 (published 2015)
